Where a SMILES comes first, the peptide text is derived from it. [ ]: non-standard residue; d: D form. The star is where a group is joined. Phe(4-N(CH2CH2Cl)2) = N[C@@H](Cc1ccc(N(CCCl)CCCl)cc1)C(=O)O; Chlorambucil = O=C(CCCc1ccc(N(CCCl)CCCl)cc1)*; X1 = Cn1c(CCCC(=O)*)nc2cc(N(CCCl)CCCl)ccc21
What was measured:
[1] = Chemostability in phosphate buffer; format: physicochemical; settings: free PDC; 0.01 M phosphate buffer (method pH 7.2), 37 °C, LC-MS PDC peak area, exponential decay fit, two independent experiments
Method: Stock solutions were prepared by dissolving 5 mg of P4-chlorambucil, P4-melphalan or P4-bendamustine coated PEG-AuNPs in 1 mL of deionized water.
100 μl of stock solution were diluted to 1 ml of 0.01 M phosphate buffer solution pH 7.2 and incubated at 37 °C. At designated time points an aliquot was removed and centrifuged at 5000 rpm for 5 min. The supernatant was recovered, filtered through a […] syringe and analyzed by LCMS for the presence of free drug. Results for each time point were expressed as mean % PDC integrity ± standard error, calculated from two independent experiments.
(§1) The chemo-stability of the P4-PDCs was tested at a physiological pH of 7.4, while the solutions were incubated at 37 °C. Biostability was assessed after incubation in a mouse liver homogenate. In each case aliquots were taken at selected times and analyzed by LC–MS. PDC integrity was determined by calculating the area under the curve of the PDC peak. The R^2 values of the exponential decay curves ranged from 0.97 to 0.99 for the three PDCs; the functions of these curves were used to calculate the t½ values. […] In liver homogenate (Fig. 5c), stability decayed more rapidly with half-lives ranging from 10.6 to 15.4 min. There was no significant difference in behavior between the three PDCs and no free drug was observed.

[2] = Biostability in liver homogenate; format: in vitro ADME; settings: pH 7.4; free PDC; 100 µl sample in 1 ml mouse liver homogenate (6 mg total protein), 37 °C, LC-MS, exponential decay fit; read-out: Biostability (liver homogenate) t½
Method: Mice were sacrificed by CO2 euthanasia. Livers were removed, and rinsed in cold 0.01 M PBS buffer pH 7.4. They were transferred to 10 ml Tris-HCI, pH 7.4 and homogenized in a Potter–Elvehjem glass tissue grinder for 4 min. The tissue homogenate was centrifuged for 20 min at 4 °C, 14,000 rpm, and the supernatant was collected. Protein concentration was measured using the BCA protein assay using bovine serum albumin as a standard. The homogenate was used immediately or else stored in liquid nitrogen.
100 μl of each sample was added to 1 ml of liver homogenate (equivalent to 6 mg total protein). The samples were incubated at 37 °C and aliquots were taken during the different incubation period at different time intervals. The collected aliquots were immediately filtered, and analyzed by LC–MS.
as §1

[3] = test system: A20 cells; experiment: Cell cytotoxicity assay (XTT); format: cell-based, murine; settings: 72 h, free drug 0-50 µM; for IC50: Mus musculus
Method: To measure drug cytotoxic effect, cells were seeded into 96-wells Nunclon culture plates at 2.5 × 10^3 cells per well and grown overnight at 37 °C. The spent medium was removed and the cells cultured for 72 h in fresh medium containing either free drug, PDCs, PEG-AuNPs or PDC-PEG-AuNPs at concentrations ranging from 0 to 50 µM (drug) filtered through a 0.22 µm syringe. Cellular metabolic status, used as a measure of cell viability, was then determined by replacing the culture medium with fresh medium containing XTT reagent (50 µl/well) and the cells were re-cultured for 2 h sat 37 °C. Absorbance in the wells was measured at 450 nm and subtracted from the reference absorbance at 630 nm. Culture medium was used as background control. All experiments were performed in triplicate on three separate occasions. Data are presented as mean ± S.D.

| SMILES | Chemostability (pH 7.4) t½ [1] | half-life [2] | maximal %GI (growth inhibition) [3] | IC50 [3] |
| --- | --- | --- | --- | --- |
| C[C@@H](O)[C@H](NC(=O)[C@H](CO)NC(=O)[C@H](Cc1c[nH]cn1)NC(=O)CCCc1nc2cc(N(CCCl)CCCl)ccc2n1C)C(=O)N1CCC[C@H]1C(=O)N[C@@H](CO)C(=O)N[C@@H](CO)C(=O)N1CCC[C@H]1C(=O)O [P4-Bendamustine] (X1-HSTPSSP-OH) | 19.3 mins | 15.4 min |  |  |
| Cn1c(CCCC(=O)O)nc2cc(N(CCCl)CCCl)ccc21 [bendamustine] |  |  | 43.1% | > 50 µM |
| C[C@@H](O)[C@H](NC(=O)[C@H](CO)NC(=O)[C@H](Cc1c[nH]cn1)NC(=O)CCCc1ccc(N(CCCl)CCCl)cc1)C(=O)N1CCC[C@H]1C(=O)N[C@@H](CO)C(=O)N[C@@H](CO)C(=O)N1CCC[C@H]1C(=O)O [P4-Chlorambucil] (Chlorambucil-HSTPSSP-OH) | 21.5 mins | 12.4 min |  |  |
| N[C@@H](Cc1ccc(N(CCCl)CCCl)cc1)C(=O)O [Melphalan] |  |  | 94.9% | 9.6 µM |
| O=C(O)CCCc1ccc(N(CCCl)CCCl)cc1 [Chlorambucil] |  |  | 89.4% | 15.8 µM |
| C[C@@H](O)[C@H](NC(=O)[C@H](CO)NC(=O)[C@H](Cc1c[nH]cn1)NC(=O)[C@@H](N)Cc1ccc(N(CCCl)CCCl)cc1)C(=O)N1CCC[C@H]1C(=O)N[C@@H](CO)C(=O)N[C@@H](CO)C(=O)N1CCC[C@H]1C(=O)O [P4-Melphalan] (H-[Phe(4-N(CH2CH2Cl)2)]HSTPSSP-OH) | 24.6 mins | 10.6 min |  |  |

Source: paper PMC5877385, “Gold nanoparticles stabilize peptide-drug-conjugates for sustained targeted drug delivery to cancer cells” (Journal of Nanobiotechnology, 2018)
